This note sets out measurements from PMC4355278 (Journal of molecular biology, 2015).

Series [1] deals with Pex1/Pex6 complex (Saccharomyces cerevisiae, UniProt P24004). The experiment in a line: ATPase assay.
Series [2] concerns the molecule itself. The experiment in a line: SEC. (In general: Size exclusion chromatography separates by hydrodynamic size, large species first.)

A word on the Kd: it is the equilibrium constant for the complex coming apart. Low readings indicate a tighter complex, high ones a looser complex.

B1: Pex15 cytosolic domain (protein)
chain: MAASEIMNNLPMHSLDSSLRDLLNDDLFIESDESTKSVNDQRSEVFQECVNLFIKRDIKDCLEKMSEVGFIDITVFKSNPMILDLFVSACDIMPSFTKLGLTLQSEILNIFTLDTPQCIETRKIILGDLSKLLVINKFFRCCIKVIQFNLTDHTEQEEKTLELESIMSDFIFVYITKMRTTIDVVGLQELIEIFIFQVKVKLHHKKPSPNMYWALCKTLPKLSPTLKGLYLSKDVSIEDAILNSIDNKIQKDKAKSKGKQRGVKQKIHHFHEPMLHNSSEEQVKVEDAFNQRTSTDSRLQSTGTAPRKKNNDITVLAGSFWAVLKHHFTRS
Take B1: the Kd in series [1] amounted to 185 nM.

B2: Pex1-FLAG (recombinant) (natural protein, S. cerevisiae, UniProt P24004 1-1043, looked up)
chain: MTTTKRLKFENLRIQFSNAIVGNFLRLPHSIINVLESTNYAIQEFGIAVHSHNSDIPIVHLGWDGHDSGSSENVVLINPVLATVYDLNQKSPLVDLYIQRYDHTHLATEVYVTPETSDDWEIIDANAMRFQNGEILHQTRIVTPGETLICYLEGIVTKFKIDRVEPSMKSARITDGSLVVVAPKVNKTRLVKAEYGHSNKTILKNGAIQLLKKVILRSTVCKMDFPKDNLFVVYISDGAQLPSQKGYASIVKCSLRQSKKSDSDNKSVGIPSKKIGVFIKCDSQIPENHIALSSHLWDAFFTHPMNGAKIKLEFLQMNQANIISGRNATVNIKYFGKDVPTKSGDQYSKLLGGSLLTNNLILPTEQIIIEIKKGESEQQLCNLNEISNESVQWKVTQMGKEEVKDIIERHLPKHYHVKETGEVSRTSKDEDDFITVNSIKKEMVNYLTSPIIATPAIILDGKQGIGKTRLLKELINEVEKDHHIFVKYADCETLHETSNLDKTQKLIMEWCSFCYWYGPSLIVLDNVEALFGKPQANDGDPSNNGQWDNASKLLNFFINQVTKIFNKDNKRIRVLFSGKQKTQINPLLFDKHFVSETWSLRAPDKHARAKLLEYFFSKNQIMKLNRDLQFSDLSLETEGFSPLDLEIFTEKIFYDLQLERDCDNVVTRELFSKSLSAFTPSALRGVKLTKETNIKWGDIGALANAKDVLLETLEWPTKYEPIFVNCPLRLRSGILLYGYPGCGKTLLASAVAQQCGLNFISVKGPEILNKFIGASEQNIRELFERAQSVKPCILFFDEFDSIAPKRGHDSTGVTDRVVNQLLTQMDGAEGLDGVYILAATSRPDLIDSALLRPGRLDKSVICNIPTESERLDILQAIVNSKDKDTGQKKFALEKNADLKLIAEKTAGFSGADLQGLCYNAYLKSVHRWLSAADQSEVVPGNDNIEYFSINEHGRREENRLRLKTLLQQDVVHETKTSTSAASELTAVVTINDLLEACQETKPSISTSELVKLRGIYDRFQKDRNGEMPNGENSIDIGSRLSLM
For the molecule B2, the binding result in series [2] is given as “binds”.
